Patent publication US20150368659

What was measured:
[1] = test system: GBSS_T1 TALE-nuclease left monomer (synthetic construct (Xanthomonas TALE)?); test: cell_activity; conditions: pair with right monomer; S. tuberosum protoplasts; 23% with TREX2 co-delivered; full target SEQ 5
[2] = test system: GBSS_T1 TALE-nuclease right monomer (synthetic construct (Xanthomonas TALE)?); test: cell_activity; conditions: pair with left monomer; S. tuberosum protoplasts; 23% with TREX2 co-delivered; full target SEQ 5

Row | Sequence | activity (% NHEJ mutagenesis) [1] | activity (% NHEJ mutagenesis) [2]
1 | TCTGACTCACAATGGTT (double strand) [GBSS_T1 left half-site] | 11 | –
2 | AGCTTGATGGGCTCCAA (double strand) [GBSS_T1 right half-site] | – | 11
